Laboratory results: paper PMC5458393, “Crystal structure of N-acetylmannosamine kinase from Fusobacterium nucleatum” (Acta Crystallographica. Section F, Structural Biology …, 2017)

Target: the molecule itself
Experiment: crystal structure; apo FnNanK at 14 mg/ml; sitting-drop vapour diffusion, 293 K; 0.2 M lithium sulfate, 0.1 M Tris-HCl pH 8.5, 30% PEG 4000; 2.23 A; one homodimer in the asymmetric unit

B1: Fusobacterium nucleatum N-acetylmannosamine kinase (enzyme, F. nucleatum)
chain: ITSLYKKAGFMNILAIDIGGTMIKYGLVSFDGKILSTDKIKTEASKGLNNILNKIDNIFKRYKENNPVGIAVSGTGQINGMIGKVIGGNPIIPNWIGTNLVKILEEKYNLPIVLENDVNCVALGEKWVGAGKDLSNFICLTIGTGIGGGILLNNQLFRGENFVAGEFGHILIKKGEFEQFASTTALIRLVKERTGKTLNGKEIFDLEKKEILEYQEIISEWIENLTDGLSSIIYCFNPANIILGGGVIEQGEPLINRIKNSLFKKIGPQFKEKLNITQAKLGNNAGMIGASYLLLEKINKR
notes: N-acetylmannosamine kinase (NanK; EC 2.7.1.60) of Fusobacterium nucleatum, synthetic gene; primers run from the start codon to the stop codon; The tag was not removed; also called FnNanK; F. nucleatum NanK; source: E. coli BL21(DE3), purified (HisTrap FF, Superdex 200 size-exclusion); not shown: His6, N-terminal, kept
- stoichiometry N: 2
